Measurements: patent US12241094B2, “Phenazine degrading agents and related compositions, methods and systems for interfering with viability of bacteria” (priority 2016, dated 2025)

Experiment: Storage stability of purified PodA30-162
Format: physicochemical
Settings: 20 mM Tris, pH7.6, 4° C.; as long as tested
Method: Protein extraction and purification. Frozen cell pellets were thawed at room temperature and suspended in 25 mL wash buffer (200 mM KCl, 20 mM imidazole, Tris, pH 7.6). Cell suspensions were homogenized in an Emulsiflex device (Avestin). Cell debris was removed by centrifugation (Avanti J-25 centrifuge, J-series JA-25.50 rotor, Beckman-Coulter) at 50,000×g and supernatant was applied to a nickel GE Healthcare HisTrap HP 5 mL nickel column on a GE Healthcare ÄKTAxpress FPLC. All protein purification steps were carried out at room temperature. The column with bound protein was washed with wash buffer until the UV (280 nm) trace stabilized below 20 mAU. Proteins were eluted across a gradient of 20-500 mM imidazole applied over 10 column volumes. PYO demethylase activity generally eluted around 300 mM imidazole. Eluted protein was concentrated to ˜3 mL (Amicon Ultra-15 centrifugal filters, Ultracel 3K MWCO) and treated overnight with 1% wt/wt TEV protease (35) while dialyzing (Spectra/Por Biotech Dialysis membrane, MWCO: 3.5-5 kD) into buffer containing 200 mM KCl and 20 mM Tris, pH7.6 at 4 C. […] Protein quantification was carried out by Bradford assay (36) (Quick Start 1× Bradford Dye Reagent, Bio-Rad) using pre-diluted Bovine Serum Albumin standards (Thermo Scientific) to establish a standard curve. […]

B1: PodA30-162: truncated pyocyanin demethylase encoded by MFORT_14352 of Mycobacterium fortuitum lacking N-terminal helix, SEQ ID NO: 2 (protein, listed as Mycobacterium fortuitum)
chain: MDGRGGRSTTEPVTMTLDVKNDQVAKHDFGKPGMDVGDMDIFSDILSVDGKQVGYDGGACFFTNVTPDNPMTYCELTIHLDAGEIFARSLTPHTLAPFTMAITGGTGEYANSKGELTVSGVATPDEKYELKLTKAENLYFQ
- time stable with no apparent loss of activity: ≥ 4 months
